Test results reported in IntAct's records for PubMed 35512704.

B1: Mothers against decapentaplegic homolog 4 (Homo sapiens), Q13485 (parent)
chain: MDNMSITNTPTSNDACLSIVHSLMCHRQGGESETFAKRAIESLVKKLKEKKDELDSLITAITTNGAHPSKCVTIQRTLDGRLQVAGRKGFPHVIYARLWRWPDLHKNELKHVKYCQYAFDLKCDSVCVNPYHYERVVSPGIDLSGLTLQSNAPSSMMVKDEYVHDFEGQPSLSTEGHSIQTIQHPPSNRASTETYSTPALLAPSESNATSTANFPNIPVASTSQPASILGGSHSEGLLQIASGPQPGQQQNGFTGQPATYHHNSTTTWTGSRTAPYTPNLPHHQNGHLQHHPPMPPHPGHYWPVHNELAFQPPISNHPAPEYWCSIAYFEMDVQVGETFKVPSSCPIVTVDGYVDPSGGDRFCLGQLSNVHRTEAIERARLHIGKGVQLECKGEGDVWVRCLSDHAVFVQSYYLDREAGRAPGDAVHKIYPSAYIKVFDLRQCHRQMQQQAATAQAAAAAQAAAVAGNIPGPGSVGGIAPAISLSAAAGIGVDDLRRLCILRMSFVKGWGPDYPRQSIKETPCWIEIHLHRALQLLDEVLHTMPIADPQPLD
partner: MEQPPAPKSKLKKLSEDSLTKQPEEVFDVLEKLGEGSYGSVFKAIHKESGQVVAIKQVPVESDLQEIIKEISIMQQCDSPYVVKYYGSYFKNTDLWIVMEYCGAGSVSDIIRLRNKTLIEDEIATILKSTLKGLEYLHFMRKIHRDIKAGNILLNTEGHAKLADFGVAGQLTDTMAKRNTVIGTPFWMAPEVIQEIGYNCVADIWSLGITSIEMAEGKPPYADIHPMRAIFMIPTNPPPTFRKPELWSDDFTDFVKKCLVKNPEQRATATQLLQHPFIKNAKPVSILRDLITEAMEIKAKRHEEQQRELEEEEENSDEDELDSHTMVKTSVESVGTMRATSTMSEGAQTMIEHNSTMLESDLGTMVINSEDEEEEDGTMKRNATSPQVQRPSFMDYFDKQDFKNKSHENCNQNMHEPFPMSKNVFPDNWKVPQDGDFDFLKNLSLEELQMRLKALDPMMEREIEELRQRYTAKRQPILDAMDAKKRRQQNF
B2: Mothers against decapentaplegic homolog 4 (Homo sapiens), Q13485 (parent)
chain: B1 chain
partner: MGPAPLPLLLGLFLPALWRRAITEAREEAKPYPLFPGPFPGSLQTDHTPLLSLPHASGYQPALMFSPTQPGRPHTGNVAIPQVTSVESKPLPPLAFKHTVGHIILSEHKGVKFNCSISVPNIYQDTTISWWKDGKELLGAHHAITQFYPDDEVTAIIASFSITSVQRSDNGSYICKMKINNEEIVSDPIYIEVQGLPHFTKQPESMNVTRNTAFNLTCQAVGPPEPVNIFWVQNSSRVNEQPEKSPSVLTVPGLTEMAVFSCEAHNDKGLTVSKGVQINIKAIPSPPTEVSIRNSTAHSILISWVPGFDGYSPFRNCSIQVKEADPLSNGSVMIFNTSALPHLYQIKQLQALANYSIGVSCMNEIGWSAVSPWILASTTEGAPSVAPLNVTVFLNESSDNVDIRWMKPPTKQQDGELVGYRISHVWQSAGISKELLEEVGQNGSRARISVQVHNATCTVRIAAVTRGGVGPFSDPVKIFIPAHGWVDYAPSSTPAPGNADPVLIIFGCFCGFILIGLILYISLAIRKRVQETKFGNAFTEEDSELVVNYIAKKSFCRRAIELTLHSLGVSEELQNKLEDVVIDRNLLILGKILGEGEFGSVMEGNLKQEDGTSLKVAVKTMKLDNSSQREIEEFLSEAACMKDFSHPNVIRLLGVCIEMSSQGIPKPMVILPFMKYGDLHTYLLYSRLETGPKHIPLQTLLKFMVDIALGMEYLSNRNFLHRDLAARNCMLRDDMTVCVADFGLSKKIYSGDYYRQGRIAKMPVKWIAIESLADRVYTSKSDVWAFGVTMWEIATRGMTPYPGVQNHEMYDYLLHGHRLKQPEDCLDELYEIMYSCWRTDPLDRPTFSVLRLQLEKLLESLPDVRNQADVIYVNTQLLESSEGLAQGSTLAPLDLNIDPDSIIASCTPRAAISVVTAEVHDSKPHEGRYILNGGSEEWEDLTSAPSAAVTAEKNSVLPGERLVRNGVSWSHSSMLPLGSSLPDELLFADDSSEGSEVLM
B3: Mothers against decapentaplegic homolog 4 (Homo sapiens), Q13485 (parent)
chain: B1 chain
partner: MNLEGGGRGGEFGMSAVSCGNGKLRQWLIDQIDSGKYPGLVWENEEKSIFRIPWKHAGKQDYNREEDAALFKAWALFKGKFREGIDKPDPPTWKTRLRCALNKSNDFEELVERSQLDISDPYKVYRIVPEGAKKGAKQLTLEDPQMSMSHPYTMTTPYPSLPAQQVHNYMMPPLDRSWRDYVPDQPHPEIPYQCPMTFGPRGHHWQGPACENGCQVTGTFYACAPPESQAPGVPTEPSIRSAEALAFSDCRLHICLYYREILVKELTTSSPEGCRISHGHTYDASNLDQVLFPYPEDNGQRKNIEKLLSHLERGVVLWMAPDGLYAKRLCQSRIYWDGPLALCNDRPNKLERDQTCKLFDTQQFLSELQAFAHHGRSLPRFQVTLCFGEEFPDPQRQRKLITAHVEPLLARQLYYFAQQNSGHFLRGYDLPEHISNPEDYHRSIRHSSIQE
B4: Mothers against decapentaplegic homolog 4 (Homo sapiens), Q13485 (parent)
chain: B1 chain
partner: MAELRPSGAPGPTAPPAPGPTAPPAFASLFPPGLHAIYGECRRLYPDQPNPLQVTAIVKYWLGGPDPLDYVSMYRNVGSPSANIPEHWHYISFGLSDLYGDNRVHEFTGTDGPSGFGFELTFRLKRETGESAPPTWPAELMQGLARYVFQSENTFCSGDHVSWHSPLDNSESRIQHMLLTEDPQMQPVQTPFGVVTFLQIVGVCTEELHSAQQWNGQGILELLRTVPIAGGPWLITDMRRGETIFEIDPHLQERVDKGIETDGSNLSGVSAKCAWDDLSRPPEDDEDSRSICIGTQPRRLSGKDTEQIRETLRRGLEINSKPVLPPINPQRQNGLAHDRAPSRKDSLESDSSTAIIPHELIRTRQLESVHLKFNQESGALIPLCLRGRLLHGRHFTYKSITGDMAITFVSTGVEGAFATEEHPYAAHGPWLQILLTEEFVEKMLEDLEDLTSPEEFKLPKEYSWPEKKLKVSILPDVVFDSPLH

Variants of: B1
Conditions: with stk3_human STK3, Q13188

| effect of a mutation on the interaction | Variant |
| --- | --- |
| with no effect | R361H |

Variants of: B2
Conditions: with mertk_human MERTK

| effect of a mutation on the interaction | Variant |
| --- | --- |
| with no effect | R361C |

Variants of: B2
Conditions: with mertk_human MERTK
Remark: another data set of the same source

| effect of a mutation on the interaction | Variant |
| --- | --- |
| with no effect | R361H |

Variants of: B2
Conditions: with mertk_human MERTK
Remark: another data set of the same source

| effect of a mutation on the interaction | Variant |
| --- | --- |
| with no effect | G386D |

Variants of: B2
Conditions: with mertk_human MERTK
Remark: another data set of the same source

| effect of a mutation on the interaction | Variant |
| --- | --- |
| with no effect | D351H |

Variants of: B3
Conditions: with irf4_human IRF4, Q15306

| effect of a mutation on the interaction | Variant |
| --- | --- |
| with no effect | R361H |

Variants of: B3
Conditions: with irf4_human IRF4, Q15306
Remark: another data set of the same source

| effect of a mutation on the interaction | Variant |
| --- | --- |
| with no effect | R361C |

Variants of: B3
Conditions: with irf4_human IRF4, Q15306
Remark: another data set of the same source

| effect of a mutation on the interaction | Variant |
| --- | --- |
| with no effect | G386D |

Variants of: B3
Conditions: with irf4_human IRF4, Q15306
Remark: another data set of the same source

| effect of a mutation on the interaction | Variant |
| --- | --- |
| with no effect | D351H |

Variants of: B4
Conditions: with sufu_human SUFU

| effect of a mutation on the interaction | Variant |
| --- | --- |
| with no effect | D351H |

Variants of: B4
Conditions: with sufu_human SUFU
Remark: another data set of the same source

| effect of a mutation on the interaction | Variant |
| --- | --- |
| with no effect | G386D |

Variants of: B4
Conditions: with sufu_human SUFU
Remark: another data set of the same source

| effect of a mutation on the interaction | Variant |
| --- | --- |
| with no effect | R361H |
